The values below come from patent US20110021367A1 (INDIAN INSTITUTE OF SCIENCE, published 2011).

B1: apo-RslA 1-108 (Zn2+ free, oxidized N-terminal domain of M. tuberculosis RslA), N-term His-tag (other)
chain: MTMPLRGLGPPDDTGVREVSTGDDHHYAMWDAAYVLGALSAADRREFEAHLAGCPECRGAVTELCGVPALLSQLDRDEVAAISESAPTVVASGLSPELLPSLLAAVHR
modifications: Zn2+ removed with H2O2 and TPEN; oxidized, one disulfide bond
notes: range 1-108; Same polypeptide as holo-RslA; for SPR made on the chip by passing 10 mM H2O2 and 2 mM TPEN over immobilized RslA; also called Zn^2+ free RslA; oxidized RslA; not shown: N-terminal His-tag from pET-Duet1 MCS1
B2: σ^L 1-177 (Mycobacterium tuberculosis sigma factor L, Rv0735), N-term His-tag (other)
chain: MARVSGAAAAEAALMRALYDEHAAVLWRYALRLTGDAAQAEDVVQETLLRAWQHPEVIGDTARPARAWLFTVARNMIIDERRSARFRNVVGSTDQSGTPEQSTPDEVNAALDRLLIADALAQLSAEHRAVIQRSYYRGWSTAQIATDLGIAEGTVKSRLHYAVRALRLTLQELGVTR
notes: range 1-177; also called SigL; Mtb σ^L; not shown: N-terminal His-tag from pET-Duet1 MCS1

Series [1] deals with the molecule itself. The series can be described thus: analytical gel filtration; dynamic light scattering. Background: SEC sorts molecules by how far they enter the pores of the column.
The target in series [2] is B2. In words: SPR (BIACORE 2000), immobilized RslA freed of Zn2+ with H2O2/TPEN, σ^L as analyte. On the technique in general: Surface plasmon resonance follows binding to a sensor surface in real time, without labels.
Series [3] has as its target B1. The description is as above.

Take B1: in series [1], the binding result is recorded as “binds”. Further, the Kd in series [2] was around 150 nM.
For the molecule B2, the “fold reduction in affinity against Zn2+ bound RslA” value in series [3] was 7 fold.

Usually Kd stands for the concentration at which binding is half-saturated. Read a low Kd as a tighter complex.
